Results reported in US20250296984A1 (THELPER, published 2025).
Where two headings read alike, the source gives them in different places. Where no end group is shown, it is not given here. The star is where a group is joined. Biotin = O=C1N[C@H]2[C@H](CS[C@H]2CCCCC(=O)*)N1

T1: US28 of HCMV strain DB fused to a C-terminal 6His tag (human cytomegalovirus (HCMV) strain DB, UniProt P69332 1-354)
T1 chain: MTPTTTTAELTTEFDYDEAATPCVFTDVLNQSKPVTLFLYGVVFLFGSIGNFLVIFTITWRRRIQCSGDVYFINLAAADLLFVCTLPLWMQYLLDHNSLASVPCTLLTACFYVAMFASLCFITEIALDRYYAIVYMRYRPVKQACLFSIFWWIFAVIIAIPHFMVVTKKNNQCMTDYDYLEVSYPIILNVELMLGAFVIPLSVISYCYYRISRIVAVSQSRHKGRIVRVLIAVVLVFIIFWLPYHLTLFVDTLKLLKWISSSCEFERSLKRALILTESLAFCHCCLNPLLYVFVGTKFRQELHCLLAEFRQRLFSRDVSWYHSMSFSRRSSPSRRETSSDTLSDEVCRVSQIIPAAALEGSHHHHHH

T2: US28 of HCMV strain TB40/E fused to a C-terminal 6His tag (human cytomegalovirus (HCMV) strain …, UniProt P69332 1-354)
T2 construct: also called TB40/E form of US28
T2 chain: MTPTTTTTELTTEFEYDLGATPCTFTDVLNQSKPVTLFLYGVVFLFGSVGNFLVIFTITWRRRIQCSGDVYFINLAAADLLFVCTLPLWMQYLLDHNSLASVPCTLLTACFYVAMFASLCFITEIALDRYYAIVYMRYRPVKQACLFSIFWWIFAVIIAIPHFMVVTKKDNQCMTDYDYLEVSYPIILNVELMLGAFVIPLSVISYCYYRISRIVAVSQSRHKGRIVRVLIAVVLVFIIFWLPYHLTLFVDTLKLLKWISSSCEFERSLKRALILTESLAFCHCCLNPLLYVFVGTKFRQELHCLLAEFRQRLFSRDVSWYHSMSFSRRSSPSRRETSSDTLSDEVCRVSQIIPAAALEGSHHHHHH

T3: US28 of HCMV strain Merlin fused to a C-terminal 6His tag (human cytomegalovirus (HCMV) strain …, UniProt F5HF62 1-354)
T3 construct: also called Merlin-encoded US28
T3 sequence: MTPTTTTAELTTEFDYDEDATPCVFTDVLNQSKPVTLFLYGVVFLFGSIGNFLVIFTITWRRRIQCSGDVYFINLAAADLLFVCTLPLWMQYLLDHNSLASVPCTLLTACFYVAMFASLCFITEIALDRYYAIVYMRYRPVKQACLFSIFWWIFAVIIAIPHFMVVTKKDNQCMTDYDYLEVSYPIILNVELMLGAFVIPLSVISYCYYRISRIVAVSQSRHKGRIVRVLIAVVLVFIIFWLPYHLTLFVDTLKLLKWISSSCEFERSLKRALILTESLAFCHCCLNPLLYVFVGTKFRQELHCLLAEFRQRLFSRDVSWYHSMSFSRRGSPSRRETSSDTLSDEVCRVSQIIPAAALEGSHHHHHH

T4: US28 of HCMV strain VHL/E fused to a C-terminal 6His tag (human cytomegalovirus (HCMV) strain …, UniProt P69332 1-354)
T4 construct: also called VHL/E-encoded US28
T4 chain: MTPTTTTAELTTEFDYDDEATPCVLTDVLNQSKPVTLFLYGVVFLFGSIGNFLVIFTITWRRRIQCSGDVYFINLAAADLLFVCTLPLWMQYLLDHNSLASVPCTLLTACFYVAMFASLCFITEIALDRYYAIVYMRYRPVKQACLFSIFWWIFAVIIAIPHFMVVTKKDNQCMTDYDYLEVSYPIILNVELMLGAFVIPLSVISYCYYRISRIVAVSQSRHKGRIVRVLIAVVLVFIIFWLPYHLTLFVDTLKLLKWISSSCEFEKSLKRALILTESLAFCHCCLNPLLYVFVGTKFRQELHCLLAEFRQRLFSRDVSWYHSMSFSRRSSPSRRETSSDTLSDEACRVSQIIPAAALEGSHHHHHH

T5: Bio-Peptide-1 (human cytomegalovirus (4N variant, e.g. …))
T5 construct: also called US28 ECD3 genotype 4N peptide
T5 peptide: Biotin-TKKNNQCMTDYDYLEVS


Key:
[1] = target: T1, US28 of HCMV strain DB fused to a …; assay: flow cytometry, CHO-US28 against control CHO cells
[2] = target: T1, US28 of HCMV strain DB fused to a …; assay: flow cytometry, processed data of FIG. 33
[3] = target: T2, US28 of HCMV strain TB40/E fused to a …; assay: flow cytometry, processed data of FIG. 33
[4] = target: T3, US28 of HCMV strain Merlin fused to a …; assay: flow cytometry, processed data of FIG. 33
[5] = target: T4, US28 of HCMV strain VHL/E fused to a …; assay: flow cytometry, processed data of FIG. 33; reference
[6] = target: T1, US28 of HCMV strain DB fused to a …; assay: flow cytometry, transfected HEK Phoenix cells, 6.76 nM
[7] = target: T2, US28 of HCMV strain TB40/E fused to a …; assay: as above
[8] = target: T4, US28 of HCMV strain VHL/E fused to a …; assay: as above
[9] = target: T3, US28 of HCMV strain Merlin fused to a …; assay: as above
[10] = target: T5, Bio-Peptide-1; assay: ELISA, Bio-Peptide-1 coated
[11] = target: T1, US28 of HCMV strain DB fused to a …; assay: flow cytometry, CHO-US28 against control CHO cells

Row | Binder | binding specificity comparative to the specificity displayed by VUN100 [1] | variation in binding relative to US28 as encoded by VHL/E [2] | variation in binding relative to US28 as encoded by VHL/E [3] | variation in binding relative to US28 as encoded by VHL/E [4] | variation in binding relative to US28 as encoded by VHL/E [5] | binding value (Preliminary Binding Data) [6] | binding value (Preliminary Binding Data) [7] | binding value (Preliminary Binding Data) [8] | binding value (Preliminary Binding Data) [9] | absorbance [10] | binding specificity comparative to the specificity displayed by VUN100 [11]
1 | US28-4-2F5B11 (antibody, mouse IgG1, kappa, V domains shown) VH: EVQLQESGAELAKPGASVKMSCKASGYTFSSYWIHWIKQRPGQGLEWIGYINPNTAYTEFNQKFMDKATLTADKSSSTAYMQLTSLTSEDSAVYYCARLRSDRTGFAYWGQGTLVTVSA VL: not shown | 4.21 fold |  |  |  |  |  |  |  |  |  | 
2 | 2F5B11-Myc (antibody, V domains shown) VH: EVQLQESGAELAKPGASVKMSCKASGYTFSSYWIHWIKQRPGQGLEWIGYINPNTAYTEFNQKFMDKATLTADKSSSTAYMQLTSLTSEDSAVYYCARLRSDRTGFAYWGQGTLVTVSA VL: not shown |  | -0.04 | -0.92 | 0.01 | 0 | 1.04 | 0.57 | 1.08 | 1.09 |  | 
3 | US28-4-4H3C3 (antibody, mouse IgG1, kappa, V domains shown) VH: QVQLQQSGAELAKPGASVKMSCKASGYTFTSYWMHWVKQRPGQGLEWIGYINPSTGYAEYNQKFKDKATLTADKSSSTAYMQLSSLTSEDSAVYYCARLRFGSSGFAYWGQGTLVTVSS VL: not shown | 3.35 fold |  |  |  |  |  |  |  |  |  | 
4 | 4H3C3-Myc (antibody, V domains shown) VH: QVQLQQSGAELAKPGASVKMSCKASGYTFTSYWMHWVKQRPGQGLEWIGYINPSTGYAEYNQKFKDKATLTADKSSSTAYMQLSSLTSEDSAVYYCARLRFGSSGFAYWGQGTLVTVSS VL: not shown |  | 0.59 | -0.16 | -0.38 | 0 | 0.37 | 0.14 | 0.16 | 0.12 |  | 
5 | US28-14-4E4-1E8 (antibody, mouse IgG1, kappa, V domains shown) VH: EVKLVESGGDLVKPGGSLKLSCAASGFTFSSYAMSWVRQTPEKRLEWVASISSGGRTYYPDSVKGRFTISRDNARNILYLQMSSLRSEDTAIYYCARGGTRHSYGNGFDYWGQGTTLTVSS VL: QIVLSQSPTIMSASPGEKVTMTCSASSSVSYMHWYQQKSGTSPKRWIYDSSKLASGVPARFSGSGSGTSYSLTISSMEAEDAATYYCQQWTSNPPITFGAGTKLELKR |  |  |  |  |  |  |  |  |  | 2.99 | 4.6 fold
6 | US28-13-1H3-1A10 (antibody, mouse IgG1, kappa, V domains shown, also called 14-1H3-1A10) VH: EVKLVESGGVLVKPGGSLKFSCAASGFTLSSHALSWVRQTPEKRLEWVASISSRGRTYYPDSVKGRFTVSRDNARNILYLQVSSLRSEDTAMYYCTRGGTHYSYGNGFDFWGQGTTLTVSS VL: QIVLTQSPAIMSASPGEKVTMTCSVSSSVSYMHWYQQKSGTSPKRWIYDTSKLASGVPARFSGSGSGTSYSLTISTMEAEDAATYYCQQWSNNPPITFGAGTKLELKR |  |  |  |  |  |  |  |  |  | 3 | 2.29 fold
7 | US28-13-1C10-1G9 (antibody, mouse IgG1, kappa, V domains shown) VH: EVKLVESGGGLVKPGGSLKLSCAASGFTFSSYAMSWVRQTPEKRLEWVASISSGGSTYYPDSVKGRFTISRDNARNILYLQMSSLRSEDTAMYYCARGGSTMITTGLGFAYWGQGTLVTVSA VL: QIVLTQSPAIMSASPGEKVTMTCSASSSVSYMHWYQQKSGTSPKRWIYDTSKLASGVPARFSGSGSGTSYSLTISSMEAEDAATYYCQQWSSNPPLTFGAGTKLELKR |  |  |  |  |  |  |  |  |  | 3.11 | 
8 | US28-13-1C10-1C10 (antibody, mouse IgG1, kappa, V domains shown) VH: EVKLVESGGVLVKPGGSLKFSCAASGFTFSSHALSWVRQTPEKRLEWVASISSRGRTYYPDSVKGRFTVSRDNARNILYLQVSSLRSEDTAMYYCTRGGTHYSYGNGFDFWGQGTTLTVSS VL: QIVLTQSPAIMSASPGEKVTMTCSVSSSVSYMHWYQQKSGTSPKRWIYDTSKLASGVPARFSGSGSGTSYSLTISTMEAEDAATYYCQQWSNNPPITFGAGTKLELKR |  |  |  |  |  |  |  |  |  | 3.11 | 1.74 fold
9 | US28-4-7B1F3 (antibody, mouse IgG1, kappa, V domains shown, also called mouse 7B1F3; mouse7B1F3) VH: EVQLQQSGAELAKPGASVKMSCKASGYTFTNYWMHWVKQRPGQGLEWIGYVNPRTGYTEYNQKFKDKATLTADKSSRTAYMQLSSLTSEDSAVYSCARILNGTGFAYWGQGTLVTVSA VL: DIVLTQSPSSLTVSVGEKFTMSCKSSQSLLYSSNQKNYLAWYQQKPGQSPKLLIYWASTRESGVPDRFTGSGSGTDFTLAISSVKPEDLAIYYCQQYYSFPLTFGAGTKLEIKR | 1.67 fold |  |  |  |  |  |  |  |  |  | 
10 | 7B1F3-Myc (antibody, V domains shown) VH: EVQLQQSGAELAKPGASVKMSCKASGYTFTNYWMHWVKQRPGQGLEWIGYVNPRTGYTEYNQKFKDKATLTADKSSRTAYMQLSSLTSEDSAVYSCARILNGTGFAYWGQGTLVTVSA VL: DIVLTQSPSSLTVSVGEKFTMSCKSSQSLLYSSNQKNYLAWYQQKPGQSPKLLIYWASTRESGVPDRFTGSGSGTDFTLAISSVKPEDLAIYYCQQYYSFPLTFGAGTKLEIK |  | 0.64 | 0.14 | 0.21 | 0 | 0.91 | 0.42 | 0.37 | 0.45 |  | 
